Data as given in publication PMC3590139, “Isocitrate Dehydrogenase from Streptococcus mutans: Biochemical Properties and Evaluation of a Putative Phosphorylation Site at Ser102” (PLoS ONE, 2013).

Key:
[1] = substrate: O=C(O)CC(C(=O)O)C(O)C(=O)O; assay: purified protein; details: saturating NAD+, 35 mM Tris-HCl pH 7.5, […] MnCl2, 37 °C
[2] = substrate: NC(=O)c1ccc[n+]([C@@H]2O[C@H](COP(=O)(O)OP(=O)(O)OC[C@H]3O[C@@H](n4cnc5c(N)ncnc54)[C@H](O)[C@@H]3O)[C@@H](O)[C@H]2O)c1; assay: purified protein; details: saturating DL-isocitrate, 35 mM Tris-HCl pH 7.5, […] MnCl2, 37 °C
[3] = target: the molecule itself; assay: SEC; HiLoad 10/300 Superdex 200, 0.05 M potassium phosphate pH 7.0, 0.15 M NaCl, 0.01% NaN3, flow 0.5 ml/min; calibrated with ovalbumin, conalbumin, aldolase, ferritin, thyroglobulin; native mass estimated as 70 kDa against a 43 kDa subunit

B1: SmIDH (Streptococcus mutans UA159) (protein)
chain: MAEKVSFEEGKLQVPDKPVIPYIEGDGVGQDIWKNAQIVFDKAIAKVYGGHKQVIWREVLAGKKAYNETGNWLPNETLEIIKTHLLAIKGPLETPVGGGIRSLNVALRQELDLFACVRPVRYFKGVPSPLKHPEKTAITIFRENTEDIYAGIEWNAGTAEVQKVINFLQDDMQVKKIRFPKSSSIGIKPISIEGSQRLIRAAIEYALANNLTKVTLVHKGNIQKFTEGGFRKWGYELAKREYAAELASGQLVVDDIIADNFLQQILLKPERFDVVALTNLNGDYASDALAAQVGGIGISPGANINYQTGHAIFEATHGTAPDIAGQDLANPSSVLLSGCMLFDYIGWSKVSDLIMKAVEKAIANGQVTIDFAKELGVEALTTRQFSEVLLTYL
Km [1]: 75 µM
kcat [1]: 124 s⁻¹
kcat/Km [1]: 1.65e+06 M⁻¹ s⁻¹
Km [2]: 154 µM
kcat [2]: 56 s⁻¹
kcat/Km [2]: 360000 M⁻¹ s⁻¹

B2: NAD+-dependent isocitrate dehydrogenase of Streptococcus mutans (enzyme, UniProt Q59940 1-393, looked up)
chain: MAEKVSFEEGKLQVPDKPVIPYIEGDGVGQDIWKNAQIVFDKAIAKVYGGHKQVIWREVLAGKKAYNETGNWLPNETLEIIKTHLLAIKGPLETPVGGGIRSLNVALRQELDLFACVRPVRYFKGVPSPLKHPEKTAITIFRENTEDIYAGIEWNAGTAEVQKVINFLQDDMQVKKIRFPKSSSIGIKPISIEGSQRLIRAAIEYALANNLTKVTLVHKGNIQKFTEGGFRKWGYELAKREYAAELASGQLVVDDIIADNFLQQILLKPERFDVVALTNLNGDYASDALAAQVGGIGISPGANINYQTGHAIFEATHGTAPDIAGQDLANPSSVLLSGCMLFDYIGWSKVSDLIMKAVEKAIANGQVTIDFAKELGVEALTTRQFSEVLLTYL
notes: 399 residues per subunit with the tag; The C-terminal position of the His6 tag is read from the reverse primer R-Sm^icd (CTA + six GTG codons on the antisense strand); also called SmIDH; S. mutans IDH; not shown: His6, C-terminal, kept
stoichiometry N [3]: 2
